Assay [1] concerns ALK. As to conditions: cited from earlier work.
Target sequence in this assay (Q9UM73 19-1620): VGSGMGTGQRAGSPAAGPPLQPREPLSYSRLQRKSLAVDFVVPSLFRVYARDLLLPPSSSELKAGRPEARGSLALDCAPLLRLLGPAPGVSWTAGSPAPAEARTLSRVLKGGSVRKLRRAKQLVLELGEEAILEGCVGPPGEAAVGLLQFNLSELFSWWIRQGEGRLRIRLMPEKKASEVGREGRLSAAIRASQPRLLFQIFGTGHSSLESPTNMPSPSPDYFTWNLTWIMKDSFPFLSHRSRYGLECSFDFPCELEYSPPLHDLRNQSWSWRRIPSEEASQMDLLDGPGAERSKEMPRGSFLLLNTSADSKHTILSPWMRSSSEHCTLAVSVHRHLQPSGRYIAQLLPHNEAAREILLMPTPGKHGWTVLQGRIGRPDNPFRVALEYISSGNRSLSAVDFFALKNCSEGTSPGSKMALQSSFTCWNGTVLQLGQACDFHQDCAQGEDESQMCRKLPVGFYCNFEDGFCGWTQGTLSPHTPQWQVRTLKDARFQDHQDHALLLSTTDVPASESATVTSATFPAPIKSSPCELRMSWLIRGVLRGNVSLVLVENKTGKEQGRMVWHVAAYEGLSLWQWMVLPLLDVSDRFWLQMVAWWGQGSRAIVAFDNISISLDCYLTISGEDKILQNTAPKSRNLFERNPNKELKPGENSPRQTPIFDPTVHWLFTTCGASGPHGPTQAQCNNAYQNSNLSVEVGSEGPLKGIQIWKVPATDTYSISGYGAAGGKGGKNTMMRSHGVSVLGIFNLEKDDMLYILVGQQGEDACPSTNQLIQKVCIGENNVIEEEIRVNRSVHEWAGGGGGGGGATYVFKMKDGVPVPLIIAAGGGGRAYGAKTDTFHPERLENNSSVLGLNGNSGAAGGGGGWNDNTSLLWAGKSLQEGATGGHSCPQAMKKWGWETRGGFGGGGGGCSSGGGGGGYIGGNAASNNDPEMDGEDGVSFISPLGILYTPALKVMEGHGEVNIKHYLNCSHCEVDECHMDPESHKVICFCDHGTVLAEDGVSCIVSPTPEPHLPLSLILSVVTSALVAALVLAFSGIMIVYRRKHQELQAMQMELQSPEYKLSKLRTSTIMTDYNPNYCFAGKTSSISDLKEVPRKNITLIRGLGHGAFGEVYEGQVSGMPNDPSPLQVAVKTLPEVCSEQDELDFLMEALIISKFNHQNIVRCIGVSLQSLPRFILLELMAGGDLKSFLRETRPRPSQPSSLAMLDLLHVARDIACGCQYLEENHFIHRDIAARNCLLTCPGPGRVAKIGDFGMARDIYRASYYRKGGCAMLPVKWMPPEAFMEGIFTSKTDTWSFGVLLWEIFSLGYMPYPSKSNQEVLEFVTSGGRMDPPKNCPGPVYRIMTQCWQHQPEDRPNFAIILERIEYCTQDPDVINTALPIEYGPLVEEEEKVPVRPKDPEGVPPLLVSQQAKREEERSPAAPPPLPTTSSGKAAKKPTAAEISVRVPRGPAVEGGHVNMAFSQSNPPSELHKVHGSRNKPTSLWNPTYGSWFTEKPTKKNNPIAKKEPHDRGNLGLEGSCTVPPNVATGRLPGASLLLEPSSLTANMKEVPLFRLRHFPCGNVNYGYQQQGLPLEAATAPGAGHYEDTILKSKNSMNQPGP
Assay [2] has as its target T1, extracellular domain of ALK (Homo sapiens, UniProt Q9UM73).
T1 construct: monoclonal antibodies (mAb) against the extracellular domain of ALK
As to conditions: cited from earlier work.

Assay [3] relates to ALK+ human neuroblastoma cells (SY5Y cells). Nature of the assay: SY5Y neuroblastoma xenograft assay. Format: in vivo. As to conditions: transduced T cells given on day 13, no treatment on day 6. Here is the method:
NSG mice were injected s.c. on day 0 with 5×10^6 human neuroblastoma cells (SY5Y in vivo passaged and re-cultured as a new line, SY5Y.P1). On day 6, 5.1×10^6 ALK48-28z CAR(+)ve T cells were injected r.o. (34% positive/15 million total). CAR-treated mice were given a cocktail of (0.9 μg IL-7+6.6 μg M25 anti-IL7 mAb) i.p. every 2-3 days, for the time period indicated above. Survival statistics were calculated using Log-rank (Mantel-Cox) analysis (Prism Software, Inc.). On day 13, 3.2×10^6 ALK48SH-trasnduced T cells were given. The experiment was ended on day 64 due to graft vs host disease-like symptoms, standardly encountered in the NSG model system.
NOD scid gamma (NSG) mice were inoculated with ALK+ human neuroblastoma cells (SY5Y cells). On day 6, the mice were treated with human T cells transduced to express the murine ALK specific ALK48-28z CAR (SEQ ID NO: 49, long form CAR with CH2CH3 spacer domain) or mock treated T cells. […] In a separate set of mice, on day 13 post inoculation (and without any treatment on day 6), the mice were treated with ALK48SH-28z (SEQ ID NO: 50, short form CAR without spacer domain) transduced T cells.
The mice also received biweekly injections of IL-7 complexed to anti-IL7 antibody to promote T cell persistence. […] The other two groups all died of tumor.

For assay [4], the target named is T2, human anaplastic lymphoma kinase (ALK) protein (human, UniProt Q9UM73 19-1620).
T2 construct: Endogenous ALK on tumor cell lines (SY5Y, LAN5, KCNR, IMR32, Rh18); also called CD246; cell surface ALK
Description: flow cytometry on tumor cell lines expressing ALK. Here is the method:
Cell lines used in these studies were: Sy5Y, LAN5, K562, Rh18, IMR32, KCNR. Cells were cultured in RPMI-1640 supplemented with 2 mM lgln, 10 mM HEPES, Pen/Strep, (Gibco, Life Technologies, Grand Island, N.Y.) and 10% FBS (Omega Scientific, Tarzana, Calif.). Anti-ALK antibodies were produced as described previously: ALK15A (IgG2b, weak agonist, membrane proximal binding), ALK48B (IgG2a, agonist, membrane proximal binding), ALK53A, ALK58A (binds to a membrane distal epitope) (Mazot et al., Oncogene, 30, 2017-2025, 2011; Moog-Lutz et al., J Biol. Chem., 280, 26039-26048, 2005). Staining for ALK expression on tumor lines was performed as follows: 2.5 μL primary antibody (1 mg/ml conc.) per 1 million cells was added to cells on ice in FACS buffer, FB, (PBS, 0.5% BSA, 0.02% NaN3) for 20 minutes, cells were washed twice, then stained with 5 μL FITC-F(ab′)2 Fragment Goat Anti-Mouse IgG+IgM (H+L) secondary antibody (Jackson ImmunoResearch, 1 mg/ml) for 20 minutes, washed, then analyzed by flow cytometry.
As reported previously, ALK MAbs 7, 48, 53, and 58 were able to detected ALK expression on tumor cell lines by flow cytometry. The ALK-specific MAb was used to define the expression of ALK on a series of neuroblastoma call lines, and a rhabdomyosarcoma cell line. FIG. 1 illustrates that the neuroblastoma cell lines SY5Y, LAN5, KCNR, IMR32, all express cell surface ALK, as does the rhabdomyosarcoma cell line Rh18. The differences in expression were quite varied with the SY5Y staining the brightest for ALK expression. This was true when the other MAbs specific for ALK were tested as well.
Background: Flow cytometry measures light scatter and fluorescence of single cells or particles in a stream.

Assay [5] relates to ALK. As to conditions: flow cytometry; as reported previously; cited from earlier work.
Target sequence in this assay (Q9UM73 19-1038 limits assumed): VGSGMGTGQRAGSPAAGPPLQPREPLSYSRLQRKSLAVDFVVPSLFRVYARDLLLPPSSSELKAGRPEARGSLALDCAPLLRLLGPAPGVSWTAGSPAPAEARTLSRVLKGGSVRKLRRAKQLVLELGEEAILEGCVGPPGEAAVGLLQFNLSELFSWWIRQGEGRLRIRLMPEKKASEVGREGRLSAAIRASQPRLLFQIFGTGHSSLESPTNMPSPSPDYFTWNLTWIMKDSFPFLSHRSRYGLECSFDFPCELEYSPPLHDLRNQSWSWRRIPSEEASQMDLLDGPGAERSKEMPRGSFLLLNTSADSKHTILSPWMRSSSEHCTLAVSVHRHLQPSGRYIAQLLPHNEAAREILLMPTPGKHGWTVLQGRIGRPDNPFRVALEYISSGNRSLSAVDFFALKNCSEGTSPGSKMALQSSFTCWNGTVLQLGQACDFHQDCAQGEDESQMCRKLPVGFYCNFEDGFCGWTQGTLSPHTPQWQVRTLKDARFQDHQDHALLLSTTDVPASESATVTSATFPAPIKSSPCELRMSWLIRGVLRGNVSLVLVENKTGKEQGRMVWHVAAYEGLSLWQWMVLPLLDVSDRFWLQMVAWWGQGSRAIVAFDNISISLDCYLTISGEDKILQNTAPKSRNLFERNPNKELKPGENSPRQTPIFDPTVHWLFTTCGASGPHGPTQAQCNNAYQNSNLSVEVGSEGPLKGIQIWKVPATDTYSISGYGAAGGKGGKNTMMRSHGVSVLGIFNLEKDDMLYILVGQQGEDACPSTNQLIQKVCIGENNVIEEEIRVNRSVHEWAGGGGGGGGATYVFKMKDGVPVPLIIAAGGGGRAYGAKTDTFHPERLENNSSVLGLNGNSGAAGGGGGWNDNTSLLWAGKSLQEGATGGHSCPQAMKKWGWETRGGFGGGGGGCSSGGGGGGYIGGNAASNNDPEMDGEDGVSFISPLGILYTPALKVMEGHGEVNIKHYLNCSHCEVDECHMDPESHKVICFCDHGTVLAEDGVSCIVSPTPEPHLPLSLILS
The test system of assay [6] is tumor cell lines (LAN5 SY5Y, Rh18, K562). Nature of the assay: Cytokine release on co-culture of CAR T cells with tumor cell lines. The assay is classed as cell-based. As to conditions: 24-hour co-culture with tumor cell lines; FIG. 6. Here is the method:
FIGS. 6A-6C show a series of graphs illustrating cytokine activity of the disclosed CAR T Cells. PBMC were transduced with the indicated CAR constructs, and incubated with tumor targets (LAN5 SY5Y, Rh18, K562 as indicated in legend), and supernatants collected after 24 hours and tested for the presence of cytokine by a MesoScale mutli-analyte detection system. […] Controls include mock transduced cells, tumor only, and T cells without tumor target, as indicated.
T cell cytolytic function was assayed in standard 51Cr release assays as described elsewhere (Haso et al., (2013) Blood, 121, 1165-1174). Cytokine release was assayed by co-incubating 25,000 T cells with 25,000 tumor cell targets in cRPMI. At 24 hours culture media was collected and cytokines measured (Human TH1/TH2 multiplex, Meso Scale Discovery, Rockville, Md.).

The values that follow come from US20160280798A1, “ALK ANTIBODIES, CONJUGATES, AND CHIMERIC ANTIGEN RECEPTORS, AND THEIR USE” (The United States of America, as Represented by the …, priority 2013, published 2016).

Read-outs that look alike come from different tables or passages of the source.

T1 sequence (Q9UM73 19-1038 limits assumed): as above
T2 sequence (Q9UM73 19-1620 limits assumed): as the sequence (Q9UM73 19-1620) above

B1: ALK15A: anti-ALK monoclonal antibody, IgG2b; VH SEQ ID NO: 1, VL SEQ ID NO: 2 (antibody, V domains shown)
VH: DVKLQESGPGLVAPSQSLSITCTVSGFSLTSYAVSWVRQPPGKGLEWLGIIWSGGATNYNSALKSRLSISKDNSKSQVFLKMNGLQTDDTARYYCAREHYYGSSAMDYWGQGASITVSS
VL: GIVMTQSPLSLPVSLGDQASISCRSSQSIVHSYGNTYLFWYLQKPGQSPKLLIYRVSNRFSGVPDRFSGSGSGTNFTLKISRVEAEDMGVYYCFQGTHVPYTFGGGTKLEIK
modifications: Antibody variable domain sequence
On to B1, for which, in assay [1], the “agonist activity on ALK” value is “weak agonist”. In addition, the “location of epitope on ALK” value in assay [2] was “membrane proximal binding”.

B2: ALK48SH-28z: CAR, SEQ ID NO: 50; murine ALK48 scFv, no spacer (short form), 28z (protein)
chain: LLVTSLLLCELPHPAFLLIPDTQVQLQQSGAELVKPGASVKISCKASGYAFSSYWMNWVKQRPGKGLEWIGQIYPGDGDTTYNGKFKGKATLTADKSSSTVYMQLNSLTSEDSAVYFCVRYYYGSSGYFDYWGQGTTLTVSSGGGGSGGGGSGGGGSDVQMIQTPDSLAVSLGQRATISCRASESVDNYGISFMHWYQQKPGQSPKLLIYRASNLESGIPARFSGSGSRTDFTLTINPVETDDVATYYCQQNNKDPPTFGGGTKLEIKRAAAIEVMYPPPYLDNEKSNGTIIHVKGKHLCPSPLFPGPSKPFWVLVVVGGVLACYSLLVTVAFIIFWVRSKRSRLLHSDYMNMTPRRPGPTRKHYQPYAPPRDFAAYRSRVKFSRSADAPAYQQGQNQLYNELNLGRREEYDVLDKRRGRDPEMGGKPRRKNPQEGLYNELQKDKMAEAYSEIGMKGERRRGKGHDGLYQGLSTATKDTYDALHMQALPPR
modifications: chimeric antigen receptor sequence
notes: murine ALK48 scFv, no spacer (short form), 28z
In the case of B2, in assay [3], the effect on survival result was “no effect on survival”.

B3: ALK58 monoclonal antibody (antibody, V domains shown)
VH: ALQLQQSGAELVRPGASVTLSCKASGYTFTDYEMHWVKQTPVHGLEWIGAIDPETGGTAYNQKFEGKAILTADKSSSTAYMELRSLTSEDSPVYYCARRRYYGSSSFDYWGQGTTLTVSS
VL: DVQMIQTPSSLSASLGDRVTISCRASQDIGNYLNWYQQKPDGTVKLLIYYTSRLHSGVPSRFSGSGSGTEYSLTISNLEQEDIATYFCQQGSALPPTFGGGTKLEIN
notes: Murine hybridoma antibody; also called ALK58A; ALK MAb 58
In the case of B3, the binding result in assay [4] is on record as “binds”.

B4: ALK58A: anti-ALK monoclonal antibody; VH SEQ ID NO: 7, VL SEQ ID NO: 8 (antibody, V domains shown)
VH: B3 VH
VL: B3 VL
modifications: Antibody variable domain sequence
In the case of B4, in assay [1], the “agonist activity on ALK” value is given as “activating” and the “phosphorylation of the receptor upon binding” value is “induce phosphorylation”. Moreover, in assay [2], the “form of ALK bound (220 kD / 140 kDa cleaved)” value is reported as “only the 220 KDa form” and the “location of epitope on ALK” value is “membrane distal epitope”. In assay [2] (listed as clone 58), the “location of epitope on ALK” value is recorded as “more distal cleaved region”. Further, the “detection of ALK expression on tumor cell lines” value (from here on “detection of ALK expression”) in assay [5] is reported as “able to detected ALK expression”.

B5: ALK53 monoclonal antibody (antibody, V domains shown)
VH: DVQLQESGPVLVKTGASVKMSCTASGYTFTDHFMDWVKQSHGKSLEWIGSLNPYSGGTSYNQKFKGKATLTVDKSSSTAYMELNSLTSVDSAVYYCARHNWGAYFDYWGQGTTLTVSS
VL: DIVMTQAAPSVPVTPGESVSISCRSSKSLLHSNGNTYLYWFLQRPGQSPQRLIYYMSNLASGVPDRFSGRGSGTDFTLRISRVEAEDVGVYYCMQGLEDPYTFGGGTKLEIK
notes: Murine hybridoma antibody; also called ALK53A; ALK MAb 53
Regarding B5, the binding result in assay [4] is “binds”.

B6: ALK53A: anti-ALK monoclonal antibody; VH SEQ ID NO: 5, VL SEQ ID NO: 6 (antibody, V domains shown)
VH: B5 VH
VL: B5 VL
modifications: Antibody variable domain sequence
With B6, in assay [5], the “detection of ALK expression” value is given as “able to detected ALK expression”.

B7: ALK48 monoclonal antibody (antibody, IgG2a, V domains shown)
VH: QVQLQQSGAELVKPGASVKISCKASGYAFSSYWMNWVKQRPGKGLEWIGQIYPGDGDTTYNGKFKGKATLTADKSSSTVYMQLNSLTSEDSAVYFCVRYYYGSSGYFDYWGQGTTLTVSS
VL: DVQMIQTPDSLAVSLGQRATISCRASESVDNYGISFMHWYQQKPGQSPKLLIYRASNLESGIPARFSGSGSRTDFTLTINPVETDDVATYYCQQNNKDPPTFGGGTKLEIK
notes: Murine hybridoma antibody; also called ALK48B; ALK MAb 48
In the case of B7, the binding result in assay [4] is recorded as “binds”.

B8: ALK48B: anti-ALK monoclonal antibody, IgG2a; VH SEQ ID NO: 3, VL SEQ ID NO: 4 (antibody, V domains shown)
VH: B7 VH
VL: B7 VL
modifications: Antibody variable domain sequence
In the case of B8, in assay [1], the “agonist activity on ALK” value is reported as “agonist” and the “phosphorylation of the receptor upon binding” value is “induce phosphorylation”. In addition, in assay [1] (listed as mAb 48), the “agonist activity on ALK” value is reported as “activating”. Further, in assay [2], the “form of ALK bound (220 kD / 140 kDa cleaved)” value is reported as “both” and the “location of epitope on ALK” value was “membrane proximal binding”. Moreover, the “location of epitope on ALK” value in assay [2] (listed as clone 48) is on record as “closer to the cell surface membrane”. Also, the “detection of ALK expression” value in assay [5] is “able to detected ALK expression”.

B9: ALK48: CAR construct, long format: SP-murine ALK48 scFv-CH2CH3 spacer; signaling domains not stated for the in vitro tests (antibody, V domains shown)
VH: B7 VH
VL: B7 VL
As for B9, in assay [6], the IFN-gamma production entry is reported as “Strong”, the IL-2 production entry is listed as “lower levels” and the TNF-alpha production entry is reported as “lower levels”.
